Reference: patent US20190192675A1 (Merck Sharp & Dohme, published 2019)
Non-standard residues stand in square brackets, D forms with d. No end group written: not given here. Lys(N3) = [N-]=[N+]=NCCCC[C@H](N)C(=O)O; Aib = CC(C)(N)C(=O)O

Tests used:
[1] = target: human Glucagon receptor (GCGR) (human, UniProt P47871 26-477); assay: cell-based or functional assay
[2] = target: human GLP-1 receptor (GLP1R) (human, UniProt P43220 24-463); assay: cell-based or functional assay
Chain of human GLP-1 receptor (GLP1R) (P43220 24-463): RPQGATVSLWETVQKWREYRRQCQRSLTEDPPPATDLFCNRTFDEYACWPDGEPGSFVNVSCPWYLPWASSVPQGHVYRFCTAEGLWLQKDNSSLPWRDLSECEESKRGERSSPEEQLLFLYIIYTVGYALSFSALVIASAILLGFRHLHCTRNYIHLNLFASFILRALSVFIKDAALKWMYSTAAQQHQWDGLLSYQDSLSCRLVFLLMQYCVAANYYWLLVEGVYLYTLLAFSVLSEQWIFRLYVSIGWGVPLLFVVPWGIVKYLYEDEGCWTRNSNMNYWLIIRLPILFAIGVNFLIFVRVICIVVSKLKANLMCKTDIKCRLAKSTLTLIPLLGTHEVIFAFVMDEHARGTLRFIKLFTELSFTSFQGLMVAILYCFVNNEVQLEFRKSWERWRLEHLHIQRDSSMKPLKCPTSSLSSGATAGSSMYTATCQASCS

Row | Binder | hGCGR_EC50 (nM), cAMP activity assay [1] [nM] | hGLP1R EC50 (nM), cAMP activity assay [2] [nM]
1 | HXQGTFTSDKSKYLDERAAQDFVXWLLDT (D-Ser (s) at 2; K(γEγEC16) at 10; Nle(εN3) at 24; C-terminal amide) [PEP87] | 0.019 | –
2 | HXQGTFTSDKSKYLDERAAQDFVXWLLDT (D-Ser (s) at 2; Nle(εN3) at 24; C-terminal amide) [PEP88] | 0.093 | 0.09
3 | H[Aib]QGTFTSDKSKYLD[Aib]RAAQDFVQWLMNTKQ[Lys(N3)]-NH2 [PEP89] | 3.9 | 0.044
